Data on 5 molecules can be found in publication PMC2861610 (Molecular Biology of the Cell, 2010).

In assay [1] the target is Abp1 (endogenous) (Dictyostelium (endogenous in Dictyostelium cells)). Description: native gel or EMSA. For orientation: In EMSA bound probe runs differently from free probe, usually more slowly.
The target of assay [2] is T1, His-tagged dynamin A (Dictyostelium, UniProt Q94464 1-853).
T1 sequence (looked up): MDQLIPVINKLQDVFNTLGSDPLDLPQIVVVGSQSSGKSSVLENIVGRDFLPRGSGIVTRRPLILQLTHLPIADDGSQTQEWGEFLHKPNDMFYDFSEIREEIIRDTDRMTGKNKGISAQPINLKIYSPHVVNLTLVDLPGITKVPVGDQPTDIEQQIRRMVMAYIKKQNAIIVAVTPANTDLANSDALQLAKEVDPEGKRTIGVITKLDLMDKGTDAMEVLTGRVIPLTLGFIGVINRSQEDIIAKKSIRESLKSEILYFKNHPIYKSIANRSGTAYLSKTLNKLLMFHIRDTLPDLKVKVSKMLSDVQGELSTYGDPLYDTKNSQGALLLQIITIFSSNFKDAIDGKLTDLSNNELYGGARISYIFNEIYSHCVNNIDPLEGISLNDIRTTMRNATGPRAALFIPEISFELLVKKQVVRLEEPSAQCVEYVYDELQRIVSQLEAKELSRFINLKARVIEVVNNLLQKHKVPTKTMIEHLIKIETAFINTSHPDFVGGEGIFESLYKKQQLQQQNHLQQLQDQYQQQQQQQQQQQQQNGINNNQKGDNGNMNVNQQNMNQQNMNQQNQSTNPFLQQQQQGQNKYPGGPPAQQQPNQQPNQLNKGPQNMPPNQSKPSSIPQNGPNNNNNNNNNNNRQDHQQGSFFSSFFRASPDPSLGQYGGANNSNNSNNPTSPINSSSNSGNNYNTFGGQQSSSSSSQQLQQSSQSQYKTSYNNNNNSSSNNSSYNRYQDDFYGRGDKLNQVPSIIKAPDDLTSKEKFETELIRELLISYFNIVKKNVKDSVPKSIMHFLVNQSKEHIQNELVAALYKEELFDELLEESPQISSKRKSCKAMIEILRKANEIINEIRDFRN
Description: far-Western, overlay or dot blot.

Assay [3] concerns the target T2, GST fusion with the GPR loop of MyoK (Dictyostelium, UniProt Q9XXV8 114-272).
T2 sequence (looked up): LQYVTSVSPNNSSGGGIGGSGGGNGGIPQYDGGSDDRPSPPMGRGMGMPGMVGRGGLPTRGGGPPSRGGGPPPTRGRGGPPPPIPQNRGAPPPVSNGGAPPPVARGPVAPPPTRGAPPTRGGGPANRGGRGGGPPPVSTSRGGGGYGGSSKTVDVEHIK
Description: SPR. On the technique in general: SPR reads the build-up and loss of mass on a sensor chip optically.

In assay [4] the target is GST-Abp1 (Dictyostelium). The assay can be described thus: SPR.

As to Abp1 (endogenous) (natural protein), in assay [1], the stoichiometry N (usually a count of units in the complex or per binding partner) came to 2.

B1: Profilin II (natural protein, Dictyostelium, UniProt P26200 1-124, looked up)
chain: MTWQAYVDNNLLGAGFASAALLGAADGSVWAHSAGFNVAEGKAITALFQKDGAAFATGIHVAGKKYMAIKSDTRSAYGKLGAGGVVCVKTLTCIIVAVYDDKLQPGAAANIAEKLADYLIDNNC
For B1, in assay [2], the binding result was “binds”. For the same molecule, the Kd (commonly a measure of binding affinity in units of concentration) in assay [3] amounted to 108 nM; in assay [4], 11 nM.

B2: His-tagged dynamin A (natural protein)
chain: T1 sequence (looked up)
In assay [4], B2 returned a Kd of 2.6 nM.

B3: Profilin I (natural protein, Dictyostelium, UniProt P26199 1-126, looked up)
chain: MSWQQYVDEQLTGAGLSQGAILGANDGGVWAKSSGINITKPEGDGIAALFKNPAEVFAKGALIGGVKYMGIKGDPQSIYGKKGATGCVLVRTGQAIIVGIYDDKVQPGSAALIVEKLGDYLRDNGY
For B3, in assay [2], the binding result is “binds”. Besides, in assay [3], the Kd is roughly 500 nM.

B4: GST fusion with the GPR loop of MyoK (domain or fragment)
chain: T2 sequence (looked up)
In assay [4], B4 yielded a Kd of 27 nM.
